T1: TbRPA1 DBD-AB (Trypanosoma brucei, UniProt Q384B5 1-257)
T1 sequence: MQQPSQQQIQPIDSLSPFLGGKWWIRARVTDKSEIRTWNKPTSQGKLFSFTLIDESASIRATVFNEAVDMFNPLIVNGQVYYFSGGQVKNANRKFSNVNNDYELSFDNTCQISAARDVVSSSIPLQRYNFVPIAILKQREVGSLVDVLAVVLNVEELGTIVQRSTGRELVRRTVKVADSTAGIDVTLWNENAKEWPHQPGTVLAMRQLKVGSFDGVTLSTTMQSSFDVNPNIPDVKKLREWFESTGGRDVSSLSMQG


What was measured:
TbRPA1 DBD-AB = molecular target: T1, TbRPA1 DBD-AB; test: MST; 20 mM Tris pH 7.5, 10 mM NaCl, 10 mM MgCl2, 2 mM DTT, 10% glycerol, 0.1 mg/ml BSA, 15 min, room temperature; EMSA 2 nM probe (gel at 4 C), MST 10 nM probe; conditions: protein: recombinant; tags: N-term 6xHis (pET28a); label: 5' Cy5 (MST) or 5' IRDye800 (EMSA); single strand
TcRPA1 DBD-AB T105S = TcRPA1 DBD-AB T105S (Trypanosoma cruzi, UniProt Q4DXC9 2-257, T105S); test: as above; conditions: protein: recombinant; tags: N-term 6xHis; label: 5' Cy5 (MST) or 5' IRDye800 (EMSA); single strand
HsRPA1 DBD-AB = HsRPA1 DBD-AB (Homo sapiens, UniProt P27694 181-427); test: as above; conditions: protein: recombinant; tags: 6xHis (pET28a); label: 5' Cy5 (MST) or 5' IRDye800 (EMSA); single strand
TbRPA1 DBD-AB S105T = TbRPA1 DBD-AB S105T (Trypanosoma brucei, UniProt Q384B5 1-257, S105T); test: as above; conditions: protein: recombinant; tags: N-term 6xHis; label: 5' Cy5 (MST) or 5' IRDye800 (EMSA); single strand
TbRPA1 DBD-AB F64A = TbRPA1 DBD-AB F64A (Trypanosoma brucei, UniProt Q384B5 1-257, F64A); test: EMSA, MST; 20 mM Tris pH 7.5, 10 mM NaCl, 10 mM MgCl2, 2 mM DTT, 10% glycerol, 0.1 mg/ml BSA, 15 min, room temperature; EMSA 2 nM probe (gel at 4 C), MST 10 nM probe; conditions: protein: recombinant; tags: N-term 6xHis; label: 5' Cy5 (MST) or 5' IRDye800 (EMSA); single strand
TbRPA1 DBD-AB W188A = TbRPA1 DBD-AB W188A (Trypanosoma brucei, UniProt Q384B5 1-257, W188A); test: as above; conditions: protein: recombinant; tags: N-term 6xHis; label: 5' Cy5 (MST) or 5' IRDye800 (EMSA); single strand

Chain of HsRPA1 DBD-AB (P27694 181-427): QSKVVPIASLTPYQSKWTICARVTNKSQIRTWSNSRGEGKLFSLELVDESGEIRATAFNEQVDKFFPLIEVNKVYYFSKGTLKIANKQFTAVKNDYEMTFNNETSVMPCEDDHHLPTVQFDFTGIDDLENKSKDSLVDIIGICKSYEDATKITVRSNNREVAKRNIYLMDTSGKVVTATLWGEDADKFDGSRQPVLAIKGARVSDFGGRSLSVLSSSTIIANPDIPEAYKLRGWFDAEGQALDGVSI

Row | Binder | Kd (TbRPA1 DBD-AB) [nM] | Kd (TcRPA1 DBD-AB T105S) [nM] | Kd (HsRPA1 DBD-AB) [nM] | Kd (TbRPA1 DBD-AB S105T) [nM] | binding result (TbRPA1 DBD-AB F64A) | binding result (TbRPA1 DBD-AB W188A)
1 | TTTTTTTTTTTTTTTTTTTTTTTTTTTTTTTT (ssDNA) [dT32] | 24.6 ± 12.4 | 52.4 ± 27.9 | 48 ± 37.4 | 21.9 ± 2.7 | no binding | no binding
2 | TTTTTTTTTTTTTTTTTTTT (ssDNA) [dT20] | 30.5 |  |  |  |  | 

Source: PMC10359466
